Assay results reported in US20220213196A1 (GRITSTONE BIO, published 2022).
Residue numbers refer to the chain shown, from its start.

B1: scFv R3G10-P4D10 (scFv, V domains shown)
VH: QVQLVQSGAEVKKPGASVKVSCKASGYTFTGYYLHWVRQAPGQGLEWMGMIGPSDGSTSYAQKFQGRVTMTRDTSTSTVYMELSSLRSEDTAVYYCARDGDAFDIWGQGTMVTVSS
VL: DIQMTQSPSSLSASVGDRVTITCRASQGISSWLAWYQQKPGKAPKLLIYDASNLETGVPSRFSGSGSGTDFTLTISSLQPEDFATYYCQQSYSTPLTFGGGTKVEIK
B2: scFv R3G10-P2G11 (scFv, V domains shown)
VH: QVQLVQSGAEVKKPGASVKVSCKASGGTFSTHDINWVRQAPGQGLEWMGVINPSGGSAIYAQKFQGRVTMTRDTSTSTVYMELSSLRSEDTAVYYCARDRGYSYGYFDYWGQGTLVTVSS
VL: B1 VL with G28D, S31R, W32Y, S91A, Y92N, T94F, L96R, G100Q
B3: scFv R3G10-P1A07 (scFv, V domains shown)
VH: EVQLLESGGGLVKPGGSLRLSCAASGFTFSSYWMSWVRQAPGKGLEWVSGISARSGRTYYADSVKGRFTISRDDSKNTLYLQMNSLKTEDTAVYYCARDQDTIFGVVITWFDPWGQGTLVTVSS
VL: DIQMTQSPSSLSASVGDRVTITCRASQGISNYLAWYQQKPGKAPKLLIYAASSLQGGVPSRFSGSGSGTDFTLTISSLQPEDFATYYCQQYFTTPYTFGQGTKLEIK
B4: scFv R3G10-P3E04 (scFv, V domains shown)
VH: QVQLVQSGAEVKKPGASVKVSCKASGNTFIGYYVHWVRQAPGQGLEWVGIINPNGGSISYAQKFQGRVTMTRDTSTSTVYMELSSLRSEDTAVYYCARGSGDPNYYYYYGLDVWGQGTTVTVSS
VL: B3 VL with R24Q, G28D, A34N, S53N, G56S, Y91A, F92N, T93S, T94L, L104V
B5: scFv R3G10-P1F06 (scFv, V domains shown)
VH: B1 VH with T30I, L34M, G100S, D101S, A102G, F103L, I105P, M111L
VL: B3 VL with G28S, A34N, A50K, Q55E, G56S, Y91S, F92Y, T93I, T94I
B6: scFv R3G10-P1H08 (scFv, V domains shown)
VH: QVQLVQSGAEVKKPGASVKVSCKASGVTFSTSAISWVRQAPGQGLEWMGWISPYNGNTDYAQMLQGRVTMTRDTSTSTVYMELSSLRSEDTAVYYCARDAHQYYDFWSGYYSGTYYYGMDVWGQGTTVTVSS
VL: B3 VL with A50S, S53N, G56S, Y91A, F92Y, T93S, T94F, Y96W, L104V
B7: scFv R3G10-P1H01 (scFv, V domains shown)
VH: B1 VH with L34M, D99G, G100V, D101G, A102N, F103L, I105Y, M111L
VL: B3 VL with G28S, A34N, G56S, Q89H, Y91T, F92Y, T93S, Y96L, L104V
B8: scFv R3G10-P5C08 (scFv, V domains shown)
VH: QVQLVQSGAEVKKPGASVKVSCKASGYNFTGYYMHWVRQAPGQGLEWMGIIAPSDGSTNYAQKFQGRVTMTRDTSTSTVYMELSSLRSEDTAVYYCARETGDDAFDIWGQGTMVTVSS
VL: not shown
B9: scFv R3G10-P2C04 (scFv, V domains shown)
VH: QVQLVQSGAEVKKPGASVKVSCKASGGTFSNSIINWVRQAPGQGLEWMGWMNPNSGNTNYAQKFQGRVTMTRDTSTSTVYMELSSLRSEDTAVYYCAREQWPSYWYFDLWGRGTLVTVSS
VL: not shown
B10: scFv R3G10-P4D04 (scFv, V domains shown)
VH: QVQLVQSGAEVKKPGASVKVSCKASGYTFTGYYVHWVRQAPGQGLEWMGIIAPSDGSTNYAQKFQGRVTMTRDTSTSTVYMELSSLRSEDTAVYYCARDPGGYMDVWGKGTTVTVSS
VL: DIQMTQSPSSLSASVGDRVTITCRASQSISSYLAWYQQKPGKAPKLLIYDASKLETGVPSRFSGSGSGTDFTLTISSLQPEDFATYYCQQSYGVPTFGQGTKLEIK
B11: scFv R3G10-P4E07 (scFv, V domains shown)
VH: QVQLVQSGAEVKKPGSSVKVSCKASGYTFTGYYMHWVRQAPGQGLEWMGRISPSDGSTTYAPKFQGRVTITADESTSTAYMELSSLRSEDTAVYYCARDMGDAFDIWGQGTTVTVSS
VL: not shown
B12: scFv R3G10-P4A02 (scFv, V domains shown)
VH: QVQLVQSGAEVKKPGASVKVSCKASGYTLSYYYMHWVRQAPGQGLEWMGMIGPSDGSTSYAQRFQGRVTMTRDTSTGTVYMELSSLRSEDTAVYYCARDTGDHFDYWGQGTLVTVSS
VL: not shown
B13: scFv R3G10-P4G06 (scFv, V domains shown)
VH: B12 VH
VL: not shown
notes: VH and VL as printed equal those of R3G10-P4A02
B14: scFv R3G10-P1B07 (scFv, V domains shown)
VH: QVQLVQSGAEVKKPGASVKVSCKASGYTFTSYYMHWVRQAPGQGLEWMGIIHPGGGTTSYAQKFQGRVTMTRDTSTSTVYMELSSLRSEDTAVYYCARDKVYGDGFDPWGQGTLVTVSS
VL: DIQMTQSPSSLSASVGDRVTITCRASQSISRWLAWYQQKPGKAPKLLIFDASRLQSGVPSRFSGSGSGTDFTLTISSLQPEDFATYYCQQAEAFPYTFGQGTKVEIK
B15: scFv R3G10-P1E12 (scFv, V domains shown)
VH: B1 VH with T28I, L34M, D99E, G100D, A102S, F103M, I105V, Q108K, M111T
VL: not shown
B16: scFv R3G10-P4C05 (scFv, V domains shown)
VH: B1 VH with L34M, M50I, S59T, D99A, G100E, D101N, A102G, F103M, I105V, M111T
VL: B1 VL with G28R, W32Y, A34N, D50S, N53T, E55Q, T56S, L96F, G100P, E105D
B17: scFv R3G10-P4E12 (scFv, V domains shown)
VH: B1 VH with L34M, K63R, D99E, G100E, A102G, F103M, I105V, M111T
VL: B3 VL with N31T, A50D, G56S, F92Y, T93S, T94Y, Y96W, K103R
B18: scFv G8-P1C01 (scFv, V domains shown)
VH: QVQLVQSGAEVKKPGASVKVSCKASGGTFSSHAISWVRQAPGQGLEWMGVIIPSGGTSYTQKFQGRVTMTRDTSTSTVYMELSSLRSEDTAVYYCARGDYYDSSGYYFPVYFDYWGQGTLVTVSS
VL: B1 VL with G28N, S30Y, S31T, W32Y, A34N, S91A, Y92N, S93G, T94F
B19: scFv G8-P2C11 (scFv, V domains shown)
VH: QVQLVQSGAEVKKPGASVKVSCKASGYTFTSYAMNWVRQAPGQGLEWMGWINPNSGGTNYAQKFQGRVTMTRDTSTSTVYMELSSLRSEDTAVYYCARDPFWSGHYYYYGMDVWGQGTTVTVSS
VL: not shown

These binders were tested against HLA-A*01:01_… (HLA-PEPTIDE target G10), recombinant soluble complex (human, UniProt P04439-2 25-297; P61769 21-119, enzymatically biotinylated (BirA) for screening and functional assays) (assay: scFv PPE ELISA).

fold binding to target pHLA over minipool of negative control pHLAs | Binder
≥ 3 fold | B1
≥ 3 fold | B2
≥ 3 fold | B3
≥ 3 fold | B4
≥ 3 fold | B5
≥ 3 fold | B6
≥ 3 fold | B7
≥ 3 fold | B8
≥ 3 fold | B9
≥ 3 fold | B10
≥ 3 fold | B11
≥ 3 fold | B12
≥ 3 fold | B13
≥ 3 fold | B14
≥ 3 fold | B15
≥ 3 fold | B16
≥ 3 fold | B17

These binders were tested against T1, HLA-A*02:01_… (HLA-PEPTIDE target G8), recombinant soluble complex (human, UniProt P04439 25-297 at identity 0.94); P61769 21-119, enzymatically biotinylated (BirA) for screening and functional assays) (assay: scFv PPE ELISA).
T1 construct: Also crystallised with Fab G8-P1C11

fold binding to target pHLA over minipool of negative control pHLAs | Binder
≥ 3 fold | B18
≥ 3 fold | B19
